Source: the supplement of paper PMC9170038

Test system: MS2 coat protein
Assay: apparent KD of MS2 coat protein; designed switch direction (-1 OFF switch, 1 ON switch): -1; higher = weaker reporter binding
Method in brief: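 Each step of the titration lasted 0.8–1.5 h at the lowest concentration and 10–20 min at the highest. The protein, SNAP-549-labelled MS2 coat protein, went from 0.7 or 1.5 nM doubling to 3 µM over RNA switches transcribed on Illumina chips by stalled E. coli RNA polymerase. Normalised cluster fluorescence was curve-fitted, and the per-design median over clusters is given as apparent KD.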

[1] = Eterna round: R95, input ligand: FMN 200 uM
[2] = Eterna round: R95, input ligand: microRNA oligo, concentration not stated
[3] = Eterna round: R95, input ligand: none
[4] = input ligand: microRNA oligo, concentration not stated

## AAAGGUGAGUAGGAUAUCCACGCACGAAUAAAGGGAGAAGGACUUACAUGAGGAUCACCCAUGUAAGGUGGUAA [Orte] (puzzle: Exclusion 6)
[1]
  apparent KD of MS2 coat protein: 0.0171 µM
[2]
  apparent KD of MS2 coat protein: 0.0143 µM
[3]
  apparent KD of MS2 coat protein: 0.0138 µM

## UGUUGGUACGUAGGAUAUCCACCAACAGGUGGAAGGAUAUGGAAACAGAAGGUUCGCCAACAGGCGGAGAAGGACGUGGUAACU [pwkr exNG2 2xF7 2xFMN.24] (Eterna round: R96, puzzle: Exclusion NG 2)
Input ligand: FMN 200 uM
  apparent KD of MS2 coat protein: 0.126 µM
[4]
  apparent KD of MS2 coat protein: 0.212 µM
Input ligand: none
  apparent KD of MS2 coat protein: 0.255 µM

## GCACGAAGUGUAGGAUAUCUGUGCGAUUAGCUCAGAGAAGGACACAUGAGGAUCACCCAUGUGUUCCGCGGAAGCAAUACGUGC [Eli exng1 - 057] (Eterna round: R96, puzzle: Exclusion NG 1)
Input ligand: FMN 200 uM
  apparent KD of MS2 coat protein: 0.0107 µM
[4]
  apparent KD of MS2 coat protein: 0.00973 µM
Input ligand: none
  apparent KD of MS2 coat protein: 0.0133 µM

## CACCGUAACAGAGGAUAUGAUACAUGAGGAUCACCCAUGUAAUAAAUGAGAAUUUCGAAUGUACCUCAGAAGGCUGGAACCGGC [Ostricism 80 - Jieux - Exclusion NG 2] (Eterna round: R96, puzzle: Exclusion NG 2)
[4]
  apparent KD of MS2 coat protein: 0.0339 µM

## CGUAAGCUAGGAUAUGCUUUGGGAAAGCAUUCCUUCGAUAAACUUGAGGAUCACCCAAGUAGAAGGAGCUUACA [salish99_ex2_r4_012] (Eterna round: R97, puzzle: Exclusion 2)
Input ligand: FMN 200 uM
  apparent KD of MS2 coat protein: 0.0182 µM
Input ligand: none
  apparent KD of MS2 coat protein: 0.0123 µM

## CUCAGACAUGAGGAUCACCCAUGUGAGGAUAUGAUGCAGCAGUGGUCUACGCUGUGCAUCAGAAGGCACAUGUG (puzzle: Exclusion 1)
[2]
  apparent KD of MS2 coat protein: 0.033 µM

## CCGGAAUAGCAGGAUAUAGGAGUCGAUAGACACCUAGAAGGGUUGACAUGAGGAUCACCCAUGUGUCCUACCGG [Fiskers Ex 6 - 82] (puzzle: Exclusion 6)
[1]
  apparent KD of MS2 coat protein: 0.322 µM
[2]
  apparent KD of MS2 coat protein: 0.247 µM
[3]
  apparent KD of MS2 coat protein: 0.519 µM

## GAGUGACAUGAGGAUCACCCAUGUGAGGAUAUCGGACGGACCAAAUUAACAAUAAUUGCGAGAAGGCGCAUCGG [Exclusion 1 V15] (puzzle: Exclusion 1)
[1]
  apparent KD of MS2 coat protein: 0.076 µM
[2]
  apparent KD of MS2 coat protein: 0.0516 µM
[3]
  apparent KD of MS2 coat protein: 0.0544 µM

## GAUGGAGAGCAGGAUAUCUUGGGUAAGCAUCAUAGAGAAGGGCUCACAUGAGGAUCACCCAUGUGGUCCUAGAA [Ateedza] (puzzle: Exclusion 6)
[1]
  apparent KD of MS2 coat protein: 0.0307 µM
[2]
  apparent KD of MS2 coat protein: 0.0162 µM
[3]
  apparent KD of MS2 coat protein: 0.0149 µM

## UAGGAGUCAGGAUAUGCGAGAGAUGGAAGUAAGGGAUGAGAGCAGAAGGGACAUGAGGAUCACCCAUGUAAGGA [JR_Exclu4_Sub091] (puzzle: Exclusion 4)
[2]
  apparent KD of MS2 coat protein: 0.0372 µM

## GUCAGCUCGUGAGGAUAUGAACAUGAGGAUCACCCAUGUAAGAUCAAGCUGCUUCGGCAGCAAGUUCAGAAGGCACGAGCUGAC [ENG2/10-A1] (Eterna round: R96, puzzle: Exclusion NG 2)
Input ligand: FMN 200 uM
  apparent KD of MS2 coat protein: 0.221 µM
[4]
  apparent KD of MS2 coat protein: 0.0858 µM
Input ligand: none
  apparent KD of MS2 coat protein: 0.134 µM

## CUCCUCGUGGCGCCUAAACACAUGAGGAUCACCCAUGUACAGGCUUUUUGCCGUCUUAUAAUAAAACCGAGGAUACG [Cezabi] (puzzle: Sensor v3, turn-off variant 1)
[1]
  apparent KD of MS2 coat protein: 0.0191 µM
[2]
  apparent KD of MS2 coat protein: 0.0639 µM
[3]
  apparent KD of MS2 coat protein: 0.0212 µM

## GCGAUGUGAGGAUAUACAAGGUGUGAGAGUGCUUGAACGUAACAUGAGGAUCACCCAUGUAGAAGGUAUGUGAU [Eternabot (L1) Solution 29] (Eterna round: R97, puzzle: Exclusion 2)
Input ligand: FMN 200 uM
  apparent KD of MS2 coat protein: 0.109 µM
Input ligand: none
  apparent KD of MS2 coat protein: 0.181 µM

## UAGACCGAUGUUAGGAUAUCUGGUCGAGAAAGAAAAGAGAAGGAACAUGAGGAUCACCCAUGUACCCGGGUAAC [Laisbebi] (puzzle: Brourd's mod of Exclusion 4)
[2]
  apparent KD of MS2 coat protein: 0.0167 µM

## AGAUGGAAGCAGGAUAUGCUUGUAUAAUUGAAAGCAGAAGGGCUAACAUGAGGAUCACCCAUGUAAGAGGUGUA [JR_E6_Sub059] (puzzle: Exclusion 6)
[1]
  apparent KD of MS2 coat protein: 0.302 µM
[2]
  apparent KD of MS2 coat protein: 0.282 µM
[3]
  apparent KD of MS2 coat protein: 0.352 µM

## GAAAGGUGAGGAUAUACACUGCGGUGUAGUCCUCAUAAAAGACAUGAGGAUCACCCAUGUAGAAGGCACAUAAA [Rirereis] (puzzle: Exclusion 2)
[1]
  apparent KD of MS2 coat protein: 0.096 µM
[2]
  apparent KD of MS2 coat protein: 0.0328 µM
[3]
  apparent KD of MS2 coat protein: 0.0275 µM

## CACGAAUAGUGAGGAUAUGUGCGACAAAGUUGCACAGAAGGCACAUGAGGAUCACCCAUGUAAGCUAGGUCGAAAGACCUAGCG [Omei Exc(NG)1 A] (Eterna round: R96, puzzle: Exclusion NG 1)
Input ligand: FMN 200 uM
  apparent KD of MS2 coat protein: 0.0374 µM
[4]
  apparent KD of MS2 coat protein: 0.0153 µM
Input ligand: none
  apparent KD of MS2 coat protein: 0.0242 µM

## UUGUUGUAUGUAGGAUAUGCGUAUUAUUAUUAUGCAGAAGGACAUGAGGAUCACCCAUGUAUAUUAUUAUUAUAUAUUAUAUAU [Title] (Eterna round: R96, puzzle: Exclusion NG 1)
[4]
  apparent KD of MS2 coat protein: 0.022 µM

## GUAGAGUCAGGAUAUACAAGAUCGAUAGAUCAAAGGUCCAUACAUGAGGAUCACCCAUGUAGAAGGGACUCUAC [Mat - Exclusion 2 - Eli Mod - D9] (Eterna round: R97, puzzle: Exclusion 2)
Input ligand: FMN 200 uM
  apparent KD of MS2 coat protein: 0.0372 µM
Input ligand: none
  apparent KD of MS2 coat protein: 0.0179 µM

## AUCGUGUCAGGAUAUUGAAGUUCCGGGCAGUCCACGGAGCUCGAGAAGGGACAUGAGGAUCACCCAUGUCUCAU [Eternabot (L1) Solution 84] (Eterna round: R97, puzzle: Exclusion 4)
Input ligand: FMN 200 uM
  apparent KD of MS2 coat protein: 0.0214 µM
Input ligand: none
  apparent KD of MS2 coat protein: 0.0186 µM

## GAAAAUGUGGAGGAUAUCGACUUCGAAAGAAGUCGAGAAGGCCACACAUGAGGAUCACCCAUGUGUUGCUUAUA [Omei Ex6 H7] (Eterna round: R97, puzzle: Exclusion 6)
Input ligand: FMN 200 uM
  apparent KD of MS2 coat protein: 0.0207 µM
Input ligand: none
  apparent KD of MS2 coat protein: 0.016 µM

## UUUGUCUGUGUGAGGAUAUACUUUUUUUGGUUUUUGUAGAAGGCACAUGAGGAUCACCCAUGUAUUUUGUUGUG [JR_BME4_Sub016] (puzzle: Brourd's mod of Exclusion 4)
[2]
  apparent KD of MS2 coat protein: 0.0311 µM

## AUUUUGAAUGUAAGGAUAUCAAUACGAGGGCGUGAUGAGAAGGUACAUGAGGAUCACCCAUGUGGCGAGCUCAC [BmEX4 B.24] (Eterna round: R97, puzzle: Brourd's mod of Exclusion 4)
Input ligand: FMN 200 uM
  apparent KD of MS2 coat protein: 0.0335 µM
Input ligand: none
  apparent KD of MS2 coat protein: 0.0237 µM

## GAUCAUGCAGGAUAUACAUGGACCAUGAAAACAUGGAUUUCACAUGAGGAUCACCCAUGUAGAAGGGCAUGAUC [Omei Ex2 A9] (Eterna round: R97, puzzle: Exclusion 2)
Input ligand: FMN 200 uM
  apparent KD of MS2 coat protein: 0.0821 µM
Input ligand: none
  apparent KD of MS2 coat protein: 0.777 µM

## UAUUAGCAAGCAAGAUCCCACAUGAGGAUCACCCAUGUGCUCGUCGCAUCCAGAAUUACUGGGUGCGCUCGUCUUAU [Winner reversed engineered 16] (Eterna round: R97, puzzle: Sensor, turn-off variant 1)
Input ligand: FMN 200 uM
  apparent KD of MS2 coat protein: 0.168 µM
Input ligand: none
  apparent KD of MS2 coat protein: 0.169 µM

## UACAUGAGGAUCACCCAUGUUUUGUCGUGUAUGGUAUUUAUCUAGGAUAUCAUUUUAUUUGGUUAUGAGAAGGAGAAUAUUAAU [JMF's solution 92] (Eterna round: R96, puzzle: Exclusion NG 3)
Input ligand: FMN 200 uM
  apparent KD of MS2 coat protein: 0.0241 µM
[4]
  apparent KD of MS2 coat protein: 0.0227 µM
Input ligand: none
  apparent KD of MS2 coat protein: 0.0305 µM
